This note sets out measurements from patent US20190127480A1 (Regeneron, published 2019).

Residue numbers refer to the chain shown, from its start.

Sequences and labels used below:
B1: H1H5786B (antibody, human IgG1, V domains shown)
VH: QVQLVESGAEVKKPGASVKVSCKTSGYTFTGYYMHWIRQAPGQGLEWMGWINPKSGGTNYAQKFQGRVTMTRDTSISTAYMELSRLRSDDMAVYYCARMGDGAVFDFWGQGTLVTVSS
VL: AIQMTQSPSSLSASVGDRVTITCRASQRISSFLNWYQQKPGKAPKLLIYTASNLQNGVPSRFSGSGSGTDFTLTISSLQPEDFATYYCQQSYRTPLTFGGGTKVEIKR
notes: H1H: human IgG1 Fc; divalent
B2: H1H5791B (antibody, human IgG1, V domains shown)
VH: B1 VH with F29L, T30S, I37M, G57V, G66D, T69A, M91T, G109A
VL: B1 VL with A1D, M4L, V104L
notes: H1H: human IgG1 Fc; divalent
B3: H1H5763P (antibody, human IgG1, V domains shown)
VH: QVQLVESGGGVVQPGRSLRLSCAASGLTFSSYGMHWVRQAPGKGLEWVAVISYDGSNKYYTDSVKGRFTISRDNSKNTLYLQMNSLRAEDTAVYYCAKGAMVRGVPYNYYYGMDVWGQGTTVTVSS
VL: DIQMTQSPSSLSASVGDRVTITCRASQGIRNDLGWYQQKPGKAPKRLIYAASSLQSGVPSRFSGSGSGTEFTLTISSLQPEDFATYYCLQHNSYPYTFGQGTKLEIK
notes: H1H: human IgG1 Fc; divalent
B4: H1H5764P (antibody, human IgG1, V domains shown)
VH: B3 VH with L27F, S30R, Y32F, S56N, N57Y, T61A, Y94H, Y109F
VL: B3 VL with G28V, V58I
notes: H1H: human IgG1 Fc; divalent
B5: H1H5778P (antibody, human IgG1, V domains shown)
VH: EVQLVESGGGLVQPGRSLRLSCVASGFTFADFTMHWVRQAPGKGLEWVSGISWNSNSIDYADSVKGRFTISRDNAKKSLFLQMSSLRAEDTALYYCVKDRSGYSRFYYGMDVWGQGTTVTVSS
VL: EIVMTQSPATLSVSPGERAILSCRASQNINSNLAWYQQKPGQAPRLLIYGASTRATGVPARFSGSGSGTEFTLTIRSLQSEDFAVYYCQQYYNWPITFGHGTRLEIK
notes: H1H: human IgG1 Fc; divalent
B6: H1H5755B (antibody, human IgG1, V domains shown)
VH: EVQLVESGGGVVQPGRSLRLSCAASGFTFSNYGMHWVRQAPGKGLEWVTVILHDGSYKYYADSVKGRFTISRDNSKNTLHLQMNSLRTEDTAVYYCAKGPMFRGVPYNHYYGMDVWGQGTTVTVSS
VL: DIQMTQSPSSLSASVGDRVTITCRASQGIRNDLGWYQQKPGKAPKRLIYAASSLQSGVSSRFSGSGSGTEFTLTISSLQPEDFATYYCLQHNSYPYTFGQGTKVEIKR
notes: H1H: human IgG1 Fc; divalent
B7: H1H5757B (antibody, human IgG1, V domains shown)
VH: B6 VH with N31S, Y57N, K58R, Y60S, H80Y, S85I, T88V, A97T, P100A, F102V
VL: B6 VL with S53I, S59P, V104L
notes: H1H: human IgG1 Fc; divalent
B8: H1H5758B (antibody, human IgG1, V domains shown)
VH: B6 VH with N31S, Y57N, K58R, H80Y, S85I, T88A, A97T, P100A, F102V
VL: B6 VL with Q3V, S53N, S59P, V104L
notes: H1H: human IgG1 Fc; divalent
B9: H1H2712N (antibody, human IgG1, V domains shown)
VH: EVQLVESGGGLVQPGGSLRLSCAATGFTFDDFTMHWVRQAPGKGLEWVSGISWNSGSIGYVDSVKGRFTISRDNAKNSLYLQMNSLRAEDTALYYCAKDNSGYGYYYYGMDVWGQGTTVTVSS
VL: EIVMTQSPATLSVSPGERATLSCRASHSVSRNSAWYQQKPGQAPRLLIYGASTRATGIPARFSGSGSGTEFTLTISSLQSEDFAIYYCQQYNNWPLTFGGGTKVEIK
notes: H1H: human IgG1 Fc; divalent
B10: H1H5771P (antibody, human IgG1, V domains shown)
VH: EVQLVESGGGLVQPGRSLRLSCAASGFSFDNYAMHWVRQAPGQGLEWVSGISWNSGSRDYADSVKGRFTISRDNARNSLFLQMNSLSNEDTAMYYCAKDKSGYGSYFYGMDVWGQGTTVTVSS
VL: EIVLTQSPGTLSLSPGDRATLSCRASQSIRNIYLAWYQQKPGQAPRLLIHGASTRATGIPDRFSGSGSGTDFTLTISRLEPEDFAVYYCQQRVSLPYTFGQGTKLEIK
notes: H1H: human IgG1 Fc; divalent
B11: H1H5781P (antibody, human IgG1, V domains shown)
VH: EVQLVESGGGLVQPGRSLRLSCAASGFTFDDFTMHWVRQAPGKGLEWVSDISWNSGSIDYADSVKGRFTISRDNARNSLFLQMSSLRTEDTASYYCIKDKSGYGSYNYGLDVWGQGTTVTVSS
VL: B10 VL with I29V, R30S, N31S, V86L, Q90H, L95S
notes: H1H: human IgG1 Fc; divalent
B12: H1H5780P (antibody, human IgG1, V domains shown)
VH: EVQLVESGGGLVQPGRSLRLSCAASGFTFDDYAMHWVRQAPGKGLEWVSGISWNGGSKDYADSVKGRFTISRDNTRNSLSLQMNSLRIEDTALYYCAKDKSGYGSFYYGLDVWGQGTTVTVSS
VL: B10 VL with N31S, L95S
notes: H1H: human IgG1 Fc; divalent
B13: H1H5772S (antibody, V domains shown)
VH: B10 VH with E1Q, N31D, S55G, S87F, N88T, M93L
VL: B10 VL with T10I, L95S
notes: H1H: human IgG1 Fc; divalent; also called H1H5772P
B14: H1H5756B (antibody, human IgG1, V domains shown)
VH: EVQLVESGGGVVQPGRSLRLSCTASGFPFSRYGMHWVRQAPGKGLEWVTFIWYDGSNKYYADSAKGRFTITRDNSKNTVYLQMDSLRADDTAVYYCVRDQAALYYFDSWGQGTLVTVSS
VL: DIQMTQSPSSVSASVGDRVTITCRASQGISRWLAWYQQKPGKAPKLLISAASSLQSGVPSRFSGSGSGTDFTLTISGLQPEDFATYYCQKANSFPFTFGPGTKLEIKR
notes: H1H: human IgG1 Fc; divalent

The target in the first test is T1, Soluble heterodimeric CD3 protein (hCD3-epsilon/hCD3-delta) with either a human Fc tag (hFcΔAdp/hFc) or a … (human, UniProt P07766 23-126; P04234 22-105).
T1 construct: also called hCD3ε/δ; not shown: Fc tag: human (hFcΔAdp/hFc)
T1 sequence (P07766 23-126 limits assumed, stated change not applied, chain 1 of 2): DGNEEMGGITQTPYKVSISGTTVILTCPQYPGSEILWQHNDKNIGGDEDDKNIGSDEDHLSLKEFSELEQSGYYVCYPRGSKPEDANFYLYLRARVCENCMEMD
T1 sequence (P04234 22-105 limits assumed, stated change not applied, chain 2 of 2): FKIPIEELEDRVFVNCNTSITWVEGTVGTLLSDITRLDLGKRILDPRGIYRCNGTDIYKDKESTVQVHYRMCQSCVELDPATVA
Description: SPR Biacore 25C antibody-capture. The procedure:
(§1) Measurements were conducted on a T200 Biacore™ instrument.
Soluble heterodimeric CD3 protein (hCD3-epsilon/hCD3-delta; SEQ ID NOs:1652/1653) with either a human Fc tag (hFcΔAdp/hFc; SEQ ID NOs:1683/1684) or a mouse Fc tag (mFcΔAdp/mFc; SEQ ID NOs:1685/1686) was injected over the antibody captured surface and the binding response was recorded. Heterodimeric CD3 protein was purified using the method described in Davis et al. (US2010/0331527).
(§2) Kinetic association (kₐ) and dissociation (kd) rate constants were determined by processing and fitting the data to a 1:1 binding model using Scrubber 2.0 curve fitting software. Binding dissociation equilibrium constants (KD) and dissociative half-lives (t₁₁₂) were calculated from the kinetic rate constants as: KD (M)=kd/kₐ; and t_{1/2} (min)=(ln 2/(60*kd). NT=not tested; NB=no binding observed.
In the case of B1, binding was characterised by a dissociation constant (Kd) of 85.4 nM, the “T½” value stood at 11 min, the koff is 0.00108 s⁻¹ and the kon is 12600 M⁻¹ s⁻¹.
For the molecule B2, binding was characterised by a dissociation constant (Kd) of 72.5 nM, the “T½” value was 15 min, the koff amounted to 0.00079 s⁻¹ and the kon worked out at 10900 M⁻¹ s⁻¹.
On the same counts, the results for B3 are 2920 nM, 0 min, 0.054 s⁻¹ and 18500 M⁻¹ s⁻¹.
For B4, the Kd is 3820 nM, the “T½” value came to 1 min, the koff stood at 0.0159 s⁻¹ and the kon was found to be 4160 M⁻¹ s⁻¹.
For the molecule B5, binding was characterised by a dissociation constant (Kd) of 27.8 nM, the “T½” value is 75 min, the koff turned out to be 0.000154 s⁻¹ and the kon turned out to be 5520 M⁻¹ s⁻¹.
In the same order, the values of B6 are 57.5 nM, 24 min, 0.000472 s⁻¹ and 8210 M⁻¹ s⁻¹.
With B7, binding was characterised by a dissociation constant (Kd) of 118 nM, the “T½” value amounted to 15 min, the koff came to 0.000785 s⁻¹ and the kon stood at 6630 M⁻¹ s⁻¹.
On the same counts, the results for B8 are 233 nM, 10 min, 0.00117 s⁻¹ and 5020 M⁻¹ s⁻¹.
Consider B9, for which binding was put at a Kd of 88.2 nM, the “T½” value turned out to be 43 min, the koff came out at 0.00027 s⁻¹ and the kon worked out at 3060 M⁻¹ s⁻¹.
In the same order, the values of B10 are 20.9 nM, 18 min, 0.000626 s⁻¹ and 30000 M⁻¹ s⁻¹.
In the same order, the values of B11 are 57.7 nM, 23 min, 0.000497 s⁻¹ and 8610 M⁻¹ s⁻¹.
In the same order, the values of B12 are 30.4 nM, 29 min, 0.000399 s⁻¹ and 13100 M⁻¹ s⁻¹.
Consider B13, for which the Kd was determined as 99.6 nM, the “T½” value was found to be 7 min, the koff was found to be 0.00155 s⁻¹ and the association rate constant (kon) was 15600 M⁻¹ s⁻¹.
In the same order, the values of B14 are 32.6 nM, 43 min, 0.000266 s⁻¹ and 8150 M⁻¹ s⁻¹.

The next test addresses T1, Soluble heterodimeric CD3 protein …. Kind of test: SPR Biacore 25C antigen-capture. As for the experimental part:
as §1
In the antigen-capture format, heterodimeric CD3 protein was captured using a rabbit anti-mouse Fc or mouse anti-human Fc and the respective antibodies were injected over the captured antigen.
as §2
On the technique in general: Surface plasmon resonance follows binding to a sensor surface in real time, without labels.
Regarding B1, the Kd stood at 0.141 nM, the “T½” value stood at 27 min, the koff was found to be 0.000424 s⁻¹ and the kon stood at 3e+06 M⁻¹ s⁻¹.
In the case of B2, binding was put at a Kd of 0.433 nM, the “T½” value is 34 min, the koff was 0.00034 s⁻¹ and the kon amounted to 786000 M⁻¹ s⁻¹.
On the same counts, the results for B3 are 92.4 nM, 1 min, 0.017 s⁻¹ and 184000 M⁻¹ s⁻¹.
In the same order, the values of B4 are 21 nM, 2 min, 0.00736 s⁻¹ and 350000 M⁻¹ s⁻¹.
In the same order, the values of B5 are 0.0856 nM, 338 min, 3.42e-05 s⁻¹ and 399000 M⁻¹ s⁻¹.
With B6, the dissociation constant Kd turned out to be 0.936 nM, the “T½” value came to 57 min, the koff stood at 0.000201 s⁻¹ and the kon was 215000 M⁻¹ s⁻¹.
For B7, the Kd turned out to be 1.64 nM, the “T½” value is 39 min, the koff amounted to 0.000295 s⁻¹ and the kon came out at 180000 M⁻¹ s⁻¹.
For B8, binding was characterised by a dissociation constant (Kd) of 3.97 nM, the “T½” value came to 21 min, the koff is 0.000562 s⁻¹ and the kon worked out at 142000 M⁻¹ s⁻¹.
On to B9, for which the Kd came out at 0.971 nM, the “T½” value is 133 min, the koff worked out at 8.68e-05 s⁻¹ and the kon worked out at 89300 M⁻¹ s⁻¹.
In the same order, the values of B10 are 0.371 nM, 34 min, 0.000342 s⁻¹ and 923000 M⁻¹ s⁻¹.
In the same order, the values of B11 are 1.92 nM, 43 min, 0.000268 s⁻¹ and 140000 M⁻¹ s⁻¹.
On the same counts, the results for B12 are 0.358 nM, 68 min, 0.000171 s⁻¹ and 478000 M⁻¹ s⁻¹.
On to B13, for which the affinity, expressed as Kd, was 1.67 nM; the “T½” value was determined as 13 min; the koff was 0.000869 s⁻¹; the kon is 519000 M⁻¹ s⁻¹.
As for B14, the affinity, expressed as Kd, was 0.767 nM; the “T½” value came out at 105 min; the koff amounted to 0.000111 s⁻¹; the kon amounted to 144000 M⁻¹ s⁻¹.

In general, Kd refers to the free concentration of one partner at which half of the binding sites on the other are occupied at equilibrium, for simple one-to-one binding. Low readings indicate tighter binding, high ones weaker binding. What is called koff is a measure of how fast the partners let go of each other. A low value points to slow dissociation. What is called kon is the second-order rate constant of association.
